B1: 1TEL-GG-UBA (other, human)
chain: IRLPAHLRLQPIYWSRDDVAQWLKWAENEFSLSPIDSNTFEMNGKALLLLTKEDFRYRSPHSGDELYELLQHILGGELQRKIMEVELSVHGVTHQEAQTALGATGGDVVSAIRNLKVDQLFHLSSRSRADAWRILEHYQWDLSAASRYVLARP
B2: 1TEL-GSGG-UBA (other, human)
chain: IRLPAHLRLQPIYWSRDDVAQWLKWAENEFSLSPIDSNTFEMNGKALLLLTKEDFRYRSPHSGDELYELLQHILGSGGELQRKIMEVELSVHGVTHQEAQTALGATGGDVVSAIRNLKVDQLFHLSSRSRADAWRILEHYQWDLSAASRYVLARP

Experiments:
[1] = target: 1TEL-GG-UBA as run in size exclusion chromatography with ubiquitin (human) (UniProt P41212); experiment: SEC
crystal structure = target: the molecule itself; experiment: crystal structure

Molecule	percent binding [1]	binding result (crystal structure)
M1-linked-di-ubiquitin (from UniProt P0CG47 1-76; P0CG47 1-76) (natural protein)	100%	
M1-linked-tetra-ubiquitin (from UniProt P0CG47 1-76; P0CG47 1-76; P0CG47 1-76; P0CG47 1-76) (natural protein)	100%	
M1-linked-tri-ubiquitin (from UniProt P0CG47 1-76; P0CG47 1-76; P0CG47 1-76) (natural protein)	100%	
B1		binds
B2		binds

From paper PMC10843481 (Structure (London, England : 1993), 2023)
